Results as given in PMC5779224 (2017).

What was measured:
Assay in all cases: ITC
[1] = molecular target: T1, AnkB 28–847 (MBD + partial AI-c) (human, UniProt Q01484-2 28-847)
T1 chain: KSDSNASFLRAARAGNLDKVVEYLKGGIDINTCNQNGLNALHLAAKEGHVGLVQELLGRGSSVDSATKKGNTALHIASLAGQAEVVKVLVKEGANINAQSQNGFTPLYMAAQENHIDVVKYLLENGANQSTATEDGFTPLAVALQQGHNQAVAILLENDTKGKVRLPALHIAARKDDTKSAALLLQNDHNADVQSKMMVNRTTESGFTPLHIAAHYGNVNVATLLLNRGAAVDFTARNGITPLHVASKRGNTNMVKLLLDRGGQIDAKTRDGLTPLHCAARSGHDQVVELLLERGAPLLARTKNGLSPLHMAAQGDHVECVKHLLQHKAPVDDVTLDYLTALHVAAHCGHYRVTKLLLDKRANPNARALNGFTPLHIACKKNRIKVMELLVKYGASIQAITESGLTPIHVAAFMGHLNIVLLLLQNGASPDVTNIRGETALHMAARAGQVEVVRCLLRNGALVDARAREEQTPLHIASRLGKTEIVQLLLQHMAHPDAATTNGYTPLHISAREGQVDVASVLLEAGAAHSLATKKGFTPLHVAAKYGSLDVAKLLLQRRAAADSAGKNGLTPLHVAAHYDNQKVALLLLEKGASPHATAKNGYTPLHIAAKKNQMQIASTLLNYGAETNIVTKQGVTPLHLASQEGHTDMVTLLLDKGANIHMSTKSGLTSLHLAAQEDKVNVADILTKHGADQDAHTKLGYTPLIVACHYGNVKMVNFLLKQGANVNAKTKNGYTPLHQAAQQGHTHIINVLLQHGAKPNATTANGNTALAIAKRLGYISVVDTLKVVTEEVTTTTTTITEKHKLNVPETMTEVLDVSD

[2] = molecular target: T2, AnkB 28–965 (MBD + AI-c + AI-b) (human, UniProt Q01484-2 28-965)
T2 chain: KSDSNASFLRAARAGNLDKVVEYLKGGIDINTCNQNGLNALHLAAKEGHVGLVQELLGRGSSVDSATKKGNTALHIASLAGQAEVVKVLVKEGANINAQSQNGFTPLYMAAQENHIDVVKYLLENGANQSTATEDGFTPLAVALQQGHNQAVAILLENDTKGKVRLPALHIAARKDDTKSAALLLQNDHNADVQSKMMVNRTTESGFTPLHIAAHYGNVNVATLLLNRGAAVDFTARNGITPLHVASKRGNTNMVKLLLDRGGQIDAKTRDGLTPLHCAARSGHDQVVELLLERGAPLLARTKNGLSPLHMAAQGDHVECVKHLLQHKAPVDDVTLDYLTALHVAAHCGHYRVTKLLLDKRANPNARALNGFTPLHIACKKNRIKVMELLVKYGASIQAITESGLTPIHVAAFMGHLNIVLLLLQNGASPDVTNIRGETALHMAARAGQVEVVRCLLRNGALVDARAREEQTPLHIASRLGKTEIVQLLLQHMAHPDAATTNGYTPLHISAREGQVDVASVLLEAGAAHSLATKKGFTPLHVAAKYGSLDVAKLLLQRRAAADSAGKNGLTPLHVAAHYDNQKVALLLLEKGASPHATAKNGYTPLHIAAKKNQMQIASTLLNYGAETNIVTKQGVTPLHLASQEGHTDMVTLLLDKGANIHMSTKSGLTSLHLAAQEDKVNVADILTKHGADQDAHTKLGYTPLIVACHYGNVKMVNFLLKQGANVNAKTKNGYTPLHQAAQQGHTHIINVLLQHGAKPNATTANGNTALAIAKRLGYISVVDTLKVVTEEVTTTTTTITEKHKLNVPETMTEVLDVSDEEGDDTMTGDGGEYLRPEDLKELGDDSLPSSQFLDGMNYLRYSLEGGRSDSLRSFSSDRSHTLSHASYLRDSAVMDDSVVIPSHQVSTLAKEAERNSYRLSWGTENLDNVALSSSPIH

AnkB ΔZZUD = molecular target: T3, AnkB ΔZZUD (human, UniProt Q01484-2 1-1872)
T3 chain: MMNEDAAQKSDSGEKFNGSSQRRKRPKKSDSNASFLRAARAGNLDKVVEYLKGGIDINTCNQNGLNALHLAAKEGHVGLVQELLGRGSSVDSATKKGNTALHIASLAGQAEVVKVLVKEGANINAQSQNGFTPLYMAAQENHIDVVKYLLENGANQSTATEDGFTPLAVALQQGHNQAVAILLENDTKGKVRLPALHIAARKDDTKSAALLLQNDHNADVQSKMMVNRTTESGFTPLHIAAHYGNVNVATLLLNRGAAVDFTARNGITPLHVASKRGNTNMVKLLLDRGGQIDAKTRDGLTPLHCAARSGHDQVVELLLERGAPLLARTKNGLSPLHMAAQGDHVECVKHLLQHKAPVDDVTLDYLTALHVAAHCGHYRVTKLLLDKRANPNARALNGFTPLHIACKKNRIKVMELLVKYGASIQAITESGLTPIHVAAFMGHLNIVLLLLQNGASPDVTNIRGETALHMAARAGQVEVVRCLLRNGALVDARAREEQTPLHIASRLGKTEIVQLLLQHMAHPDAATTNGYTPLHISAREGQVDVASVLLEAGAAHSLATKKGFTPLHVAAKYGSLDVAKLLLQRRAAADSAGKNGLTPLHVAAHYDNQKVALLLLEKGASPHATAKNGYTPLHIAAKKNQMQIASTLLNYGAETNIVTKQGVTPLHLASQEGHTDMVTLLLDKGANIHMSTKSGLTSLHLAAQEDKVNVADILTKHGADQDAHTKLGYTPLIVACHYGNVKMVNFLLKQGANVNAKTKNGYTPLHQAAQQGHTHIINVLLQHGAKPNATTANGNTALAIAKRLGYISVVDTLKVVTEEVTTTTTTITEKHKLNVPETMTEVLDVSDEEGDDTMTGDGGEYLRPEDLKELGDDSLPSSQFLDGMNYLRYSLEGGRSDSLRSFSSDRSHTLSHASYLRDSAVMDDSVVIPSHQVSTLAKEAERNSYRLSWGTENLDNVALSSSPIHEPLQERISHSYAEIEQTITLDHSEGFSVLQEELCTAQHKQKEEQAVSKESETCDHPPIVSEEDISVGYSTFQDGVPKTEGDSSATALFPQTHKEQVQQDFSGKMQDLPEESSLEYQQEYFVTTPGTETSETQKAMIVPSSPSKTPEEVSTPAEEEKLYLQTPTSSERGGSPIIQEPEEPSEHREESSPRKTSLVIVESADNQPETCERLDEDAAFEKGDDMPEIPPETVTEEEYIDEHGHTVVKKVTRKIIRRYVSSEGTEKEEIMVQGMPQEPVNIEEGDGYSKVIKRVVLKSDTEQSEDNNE

Kd [1]: 0.49 µM | Kd [2]: 23 µM | Kd (AnkB ΔZZUD): 14 µM
B1: NF186 (aa 1187–1214) (domain or fragment)
chain: SDDSLVDYGEGGEGQFNEDGSFIGQYTV
